# From patent US20260174875A1 (Novo Nordisk A/S, priority 2023, published 2026)
# Numbered stars: 1 amine (or outer) side, 2 acyl side, 3 side chain; on linkers, the order of the positions; unused ones are H or OH. Square brackets hold non-standard residues; d marks the D form. Side chains are listed from the residue outwards. * marks the point of attachment. C20 diacid = O=C(O)CCCCCCCCCCCCCCCCCCC(=O)*; C18 diacid = O=C(O)CCCCCCCCCCCCCCCCC(=O)*; C16 diacid = O=C(O)CCCCCCCCCCCCCCC(=O)*; γGlu = O=C(O)[C@H](CCC(=O)[*:2])N[*:1]; Chem. 28 = not defined here; AEEA = NCCOCCOCC(=O)O; Aib = CC(C)(N)C(=O)O
# T1: human amylin-3(a) receptor (human, UniProt P30988 25-474; O60896 24-148)
# T1 sequence (looked up) 1: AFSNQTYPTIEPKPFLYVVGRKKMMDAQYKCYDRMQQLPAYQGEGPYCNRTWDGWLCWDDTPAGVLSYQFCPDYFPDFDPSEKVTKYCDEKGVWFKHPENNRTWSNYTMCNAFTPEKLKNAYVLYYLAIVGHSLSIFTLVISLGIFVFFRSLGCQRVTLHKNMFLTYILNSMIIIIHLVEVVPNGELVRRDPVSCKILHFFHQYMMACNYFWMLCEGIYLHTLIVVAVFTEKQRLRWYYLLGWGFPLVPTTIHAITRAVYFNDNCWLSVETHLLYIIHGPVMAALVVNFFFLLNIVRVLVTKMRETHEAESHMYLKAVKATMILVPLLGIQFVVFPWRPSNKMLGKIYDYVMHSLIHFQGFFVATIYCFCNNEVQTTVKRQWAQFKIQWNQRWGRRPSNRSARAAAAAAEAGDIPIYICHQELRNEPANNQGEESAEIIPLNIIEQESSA
# T1 sequence (looked up) 2: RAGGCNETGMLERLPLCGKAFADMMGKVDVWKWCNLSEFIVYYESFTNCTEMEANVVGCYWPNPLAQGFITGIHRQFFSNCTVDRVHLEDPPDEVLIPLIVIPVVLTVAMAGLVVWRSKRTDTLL
# T2: human GIP receptor (human, UniProt P48546 22-466)
# T2 sequence (looked up): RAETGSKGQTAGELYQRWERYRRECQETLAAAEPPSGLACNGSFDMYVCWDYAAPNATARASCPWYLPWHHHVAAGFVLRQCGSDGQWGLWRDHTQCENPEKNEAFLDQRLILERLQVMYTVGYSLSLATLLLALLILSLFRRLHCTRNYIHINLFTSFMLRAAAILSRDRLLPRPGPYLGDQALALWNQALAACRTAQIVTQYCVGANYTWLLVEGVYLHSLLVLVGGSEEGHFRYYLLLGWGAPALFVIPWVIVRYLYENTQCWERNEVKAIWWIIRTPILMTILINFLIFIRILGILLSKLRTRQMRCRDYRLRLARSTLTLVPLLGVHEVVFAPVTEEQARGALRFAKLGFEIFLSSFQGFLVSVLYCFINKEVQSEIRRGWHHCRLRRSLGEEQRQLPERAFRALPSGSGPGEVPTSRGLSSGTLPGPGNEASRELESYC
# B1: Compound 12 (peptide)
# peptide: H[Aib]HGTFTSDYSILLEEQAAREFIEWLLAGGPSK([AEEA-AEEA-γGlu-C16 diacid])GAPPPSGGGEASELSTAALGRLSAELHELATLPRTETGSGSP-NH2
# B2: Compound 17 (peptide)
# peptide: H[Aib]HGTFTSDYSILLEEQAAREFIEWLLAGGPSK([AEEA-AEEA-γGlu-C16 diacid])GEASELSTAALGRLSAELHRLATLPRTETGSGSP-NH2
# B3: Compound 26 (peptide)
# peptide: Y[Aib]EGTFTSDYSILLEEQAAREFIEWLLAGGPSK(Chem. 28)GEASELSTAALGRLSAELHELATLPRTETGSGSP-NH2
# modifications: reading uncertain
# B4: Compound 14 (peptide)
# peptide: H[Aib]HGTFTSDYSILLEEQAAREFIEWLLAGGPSK([AEEA-AEEA-γGlu-C18 diacid])GAPPPSGGGGASELSTAALGRLSAELHRLATLPRTETGSGSP-NH2
# B5: Compound 15 (peptide)
# peptide: H[Aib]HGTFTSDYSILLEEQAAREFIEWLLAGGPSK([AEEA-AEEA-γGlu-C18 diacid])GAPPPSGGGEASELSTAALGRLSAELHELATLPRTETGSGSP-NH2
# B6: Compound 16 (peptide)
# peptide: H[Aib]HGTFTSDYSILLEEQAAREFIEWLLAGGPSK([AEEA-AEEA-γGlu-C20 diacid])GAPPPSGGGEASELSTAALGRLSAELHELATLPRTETGSGSP-NH2
# Molecular target: T3, human GLP-1 receptor (human, UniProt P43220 24-463)
# Experiment: cell-based or functional assay
# Details: not given
row,"hGLP-1R Potency, no HSA, EC50 [pM]",Molecule
1,0.8,B1
2,2.72,B2
3,20.7,B3
4,2.05,B4
5,1.41,B5
6,2.74,B6

# Molecular target: T1, human amylin-3(a) receptor
# Experiment: cell-based or functional assay
# Details: not given
row,"hAMYR3 Potency, no HSA, EC50 [pM]",Molecule
1,6.23,B1
2,5.13,B2
3,11.8,B3
4,2.21,B4
5,5.01,B5
6,5.7,B6

# Molecular target: T2, human GIP receptor
# Experiment: cell-based or functional assay
# Details: not given
row,"hGIPR Potency, no HSA, EC50 [pM]",Molecule
1,2.62,B1
2,5.04,B2
3,1.75,B3
4,5.84,B4
5,3.2,B5
6,4.27,B6

# Molecular target: T3, human GLP-1 receptor
# Experiment: cell-based or functional assay
# Details: not given
# Remark: another data set of the same source
row,"hGLP-1R Potency, 1% HSA, EC50 [pM]",Molecule
1,10.2,B1
2,13.1,B2
3,1680,B3
4,75.9,B4
5,103,B5
6,238,B6

# Molecular target: T1, human amylin-3(a) receptor
# Experiment: cell-based or functional assay
# Details: not given
# Remark: another data set of the same source
row,"hAMYR3 Potency, 1% HSA, EC50 [pM]",Molecule
1,55,B1
2,33.6,B2
3,349,B3
4,33.4,B4
5,82.2,B5
6,166,B6

# Molecular target: T2, human GIP receptor
# Experiment: cell-based or functional assay
# Details: not given
# Remark: another data set of the same source
row,"hGIPR Potency, 1% HSA, EC50 [pM]",Molecule
1,59.1,B1
2,36.9,B2
3,558,B3
4,254,B4
5,356,B5
6,485,B6

# Tested on: not listed separately
# Experiment: Chemical stability assessment in formulation (UPLC-UV-MS purity loss at 37° C.)
# Format: physicochemical
# Details: 8 mM phosphate buffer pH 7.4, 1 mg/mL, 2 weeks
# Protocol: The assay was performed to investigate the extend of chemical degradation in vitro over time upon incubation at 37° C. for a period of 2 weeks.
# Peptide solutions were prepared by dissolving freeze-dried powder in 8 mM phosphate buffer pH 7.4 to a target of 1 mg/mL. The pH of peptide solutions was adjusted to 7.4 with 0.02 M HCl or 0.02 M NaOH. Samples were filled in Agilent HPLC vials with fixed insert. Vials were capped to prevent evaporation. The HPLC vials were incubated at 37° C. and samples were withdrawn at different time points over a period of 2 weeks, flash frozen at −80° C., and stored at −20° C. until analysis.
# A flow-rate of 100 μL/min was delivered with a Binary solvent manager pump having 0.1% formic acid in water as solvent A and 0.1% formic acid in acetonitrile as solvent B. Gradient elution was carried out using 20% B from 0 to 2 min followed by 20 to 50% B from 2 to 20 min in a total run time of 30 min.
row,Purity loss per week at 37° C. [%],Molecule
1,1.0,CC[C@H](C)[C@H](NC(=O)[C@H](CCC(=O)O)NC(=O)[C@H](CCC(=O)O)NC(=O)[C@H](CC(C)C)NC(=O)[C@H](CC(C)C)NC(=O)[C@H](CCCCNC(=O)COCCOCCNC(=O)COCCOCCNC(=O)CC[C@H](NC(=O)CCCCCCCCCCCCCCCCCCC(=O)O)C(=O)O)NC(=O)[C@H](CO)NC(=O)[C@H](Cc1ccc(O)cc1)NC(=O)[C@H](CC(=O)O)NC(=O)[C@H](CO)NC(=O)[C@@H](NC(=O)[C@H](Cc1ccccc1)NC(=O)[C@@H](NC(=O)CNC(=O)[C@H](CCC(=O)O)NC(=O)C(C)(C)NC(=O)[C@@H](N)Cc1ccc(O)cc1)[C@@H](C)O)[C@@H](C)O)C(=O)N[C@@H](C)C(=O)N[C@@H](C)C(=O)N[C@@H](CCCNC(=N)N)C(=O)N[C@@H](CCC(=O)O)C(=O)N[C@@H](Cc1ccccc1)C(=O)N[C@H](C(=O)N[C@@H](CCC(=O)O)C(=O)N[C@@H](Cc1c[nH]c2ccccc12)C(=O)N[C@@H](CC(C)C)C(=O)N[C@@H](CC(C)C)C(=O)N[C@@H](C)C(=O)NCC(=O)NCC(=O)N1CCC[C@H]1C(=O)N[C@@H](CO)C(=O)N[C@@H](CO)C(=O)NCC(=O)N[C@@H](C)C(=O)NCC(=O)N[C@@H](CCC(N)=O)C(=O)N[C@@H](C)C(=O)N1CCC[C@H]1C(=O)NCC(=O)N[C@@H](CCC(N)=O)C(=O)N[C@@H](C)C(=O)N1CCC[C@H]1C(=O)NCC(=O)N[C@@H](C)C(=O)N[C@@H](CO)C(=O)N[C@@H](Cc1c[nH]cn1)C(=O)N[C@@H](CC(C)C)C(=O)N[C@@H](CO)C(=O)N[C@H](C(=O)N[C@@H](C)C(=O)N[C@@H](CCC(N)=O)C(=O)N[C@@H](CC(C)C)C(=O)NCC(=O)N[C@@H](CCCNC(=N)N)C(=O)N[C@@H](CC(C)C)C(=O)N[C@@H](CO)C(=O)N[C@@H](C)C(=O)N[C@@H](CCC(=O)O)C(=O)N[C@@H](CC(C)C)C(=O)N[C@@H](Cc1c[nH]cn1)C(=O)N[C@@H](CCC(N)=O)C(=O)N[C@@H](CC(C)C)C(=O)N[C@@H](C)C(=O)N[C@H](C(=O)N[C@@H](CC(C)C)C(=O)N1CCC[C@H]1C(=O)N[C@@H](CCCNC(=N)N)C(=O)N[C@H](C(=O)N[C@@H](CCC(=O)O)C(=O)N[C@H](C(=O)NCC(=O)N[C@@H](CO)C(=O)NCC(=O)N[C@@H](CO)C(=O)N1CCC[C@H]1C(N)=O)[C@@H](C)O)[C@@H](C)O)[C@@H](C)O)[C@@H](C)O)[C@@H](C)CC [Compound 123]
2,1.0,CC[C@H](C)[C@H](NC(=O)[C@H](CCC(=O)O)NC(=O)[C@H](CCC(=O)O)NC(=O)[C@H](CC(C)C)NC(=O)[C@H](CC(C)C)NC(=O)[C@@H](NC(=O)[C@H](CO)NC(=O)[C@H](Cc1ccc(O)cc1)NC(=O)[C@H](CC(=O)O)NC(=O)[C@H](CO)NC(=O)[C@@H](NC(=O)[C@H](Cc1ccccc1)NC(=O)[C@@H](NC(=O)CNC(=O)[C@H](CCC(=O)O)NC(=O)C(C)(C)NC(=O)[C@@H](N)Cc1ccc(O)cc1)[C@@H](C)O)[C@@H](C)O)[C@@H](C)CC)C(=O)N[C@@H](C)C(=O)N[C@@H](C)C(=O)N[C@@H](CCCNC(=N)N)C(=O)N[C@@H](CCC(=O)O)C(=O)N[C@@H](Cc1ccccc1)C(=O)N[C@H](C(=O)N[C@@H](CCC(=O)O)C(=O)N[C@@H](Cc1c[nH]c2ccccc12)C(=O)N[C@@H](CC(C)C)C(=O)N[C@@H](CC(C)C)C(=O)N[C@@H](C)C(=O)NCC(=O)NCC(=O)N1CCC[C@H]1C(=O)N[C@@H](CO)C(=O)N[C@@H](CO)C(=O)NCC(=O)N[C@@H](CCC(=O)O)C(=O)NCC(=O)N[C@@H](CCC(N)=O)C(=O)N[C@@H](C)C(=O)N1CCC[C@H]1C(=O)NCC(=O)N[C@@H](CCC(N)=O)C(=O)N[C@@H](C)C(=O)N1CCC[C@H]1C(=O)NCC(=O)N[C@@H](C)C(=O)N[C@@H](CO)C(=O)N[C@@H](Cc1c[nH]cn1)C(=O)N[C@@H](CC(C)C)C(=O)N[C@@H](CO)C(=O)N[C@H](C(=O)N[C@@H](C)C(=O)N[C@@H](CCC(N)=O)C(=O)N[C@H](C(=O)N[C@@H](CCC(N)=O)C(=O)N[C@@H](CCCNC(=N)N)C(=O)N[C@@H](CC(C)C)C(=O)N[C@@H](CO)C(=O)N[C@@H](C)C(=O)N[C@@H](CCC(=O)O)C(=O)N[C@@H](CC(C)C)C(=O)N[C@@H](Cc1c[nH]cn1)C(=O)N[C@@H](CCCCNC(=O)COCCOCCNC(=O)COCCOCCNC(=O)CC[C@H](NC(=O)CCCCCCCCCCCCCCCCCCC(=O)O)C(=O)O)C(=O)N[C@@H](CC(C)C)C(=O)N[C@@H](C)C(=O)N[C@H](C(=O)N[C@@H](CC(C)C)C(=O)N1CCC[C@H]1C(=O)N[C@@H](CCCNC(=N)N)C(=O)N[C@H](C(=O)N[C@@H](CCC(=O)O)C(=O)N[C@H](C(=O)NCC(=O)N[C@@H](CO)C(=O)NCC(=O)N[C@@H](CO)C(=O)N1CCC[C@H]1C(N)=O)[C@@H](C)O)[C@@H](C)O)[C@@H](C)O)[C@@H](C)O)[C@@H](C)O)[C@@H](C)CC [Compound 147]
